Laboratory results: patent publication US20030124704A1 (YALE UNIVERSITY, published 2003)

Target: Alkaline phosphatase-hNogo-A(1055-1120) (human, UniProt P05187 23-511)
Experiment: AP-fusion ligand binding to COS-7 cells transfected with myc-mNgR3; expression checked by anti-myc staining and immunoblot
Excerpt: The mouse NgR3 cDNA was amplified by PCR from mouse adult brain cDNA, from the signal sequence to the stop codon, and ligated into the pSecTag2 vector such that the vector encodes a signal sequence followed by a myc tag followed by the mature mNgR3 sequence. This plasmid was transfected into COS07cells, and expression of a myc-tagged protein of the predicted size was verified by immunoblot analysis.

Sequence of Alkaline phosphatase-hNogo-A(1055-1120) (P05187 other isoform, or with tags, fused parts or gaps): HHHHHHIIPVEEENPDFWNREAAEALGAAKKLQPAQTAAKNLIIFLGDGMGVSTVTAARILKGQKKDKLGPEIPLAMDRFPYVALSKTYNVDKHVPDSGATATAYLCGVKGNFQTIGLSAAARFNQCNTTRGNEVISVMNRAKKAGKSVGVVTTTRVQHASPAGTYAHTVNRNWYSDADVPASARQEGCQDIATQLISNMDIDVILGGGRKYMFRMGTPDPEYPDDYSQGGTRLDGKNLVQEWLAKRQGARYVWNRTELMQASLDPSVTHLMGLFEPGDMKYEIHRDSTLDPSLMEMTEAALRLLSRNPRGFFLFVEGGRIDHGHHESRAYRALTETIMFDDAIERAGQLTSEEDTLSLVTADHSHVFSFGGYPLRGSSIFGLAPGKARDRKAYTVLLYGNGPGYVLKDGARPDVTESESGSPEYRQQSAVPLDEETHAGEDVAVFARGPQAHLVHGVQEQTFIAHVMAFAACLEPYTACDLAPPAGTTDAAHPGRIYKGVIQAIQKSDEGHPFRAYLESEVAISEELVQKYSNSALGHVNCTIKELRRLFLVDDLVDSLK

B1: myc epitope-tagged mouse NgR3 (mNgR3) expressed on COS-7 cells (receptor, not shown: small tags and cut ends)
chain: CPRDCVCYPAPMTVSCQAHNFAAIPEGIPEDSERIFLQNNRITFLQQGHFSPAMVTLWIYSNNITFIAPNTFEGFVHLEELDLGDNRQLRTLAPETFQGLVKLHALYLYKCGLSALPAGIFGGLHSLQYLYLQDNHIEYLQDDIFVDLVNLSHLFLHGNKLWSLGQGIFRGLVNLDRLLLHENQLQWVHHKAFHDLHRLTTLFLFNNSLTELQGDCLAPLVALEFLRLNGNAWDCGCRARSLWEWLRRFRGSSSAVPCATPELRQGQDLKLLRVEDFRNCTGPVSPHQIKSHTLTTSDRAARKEHHPSHGASRDKGHPHGHPPGSRSGYKKAGKNCTSHRNRNQISKVSSGKELTELQDYAPDYQHKFSFDIMPTARPKRKGKCARRTPIRAPSGVQQAS
notes: The cDNA was amplified from mouse adult brain; Any processing of the C-terminal GPI signal is not described; also called myc-NgR3
- binding result: no binding
